Experimental data: US20220119489A1, “COMPOSITIONS AND METHODS FOR TREATING MUSCULAR DYSTROPHY AND RELATED DISORDERS” (CHILDREN'S MEDICAL CENTER CORPORATION, priority 2019, published 2022)

T1: CD82 polypeptide (human) (human)
T1 sequence (P27701 whole entry, looked up): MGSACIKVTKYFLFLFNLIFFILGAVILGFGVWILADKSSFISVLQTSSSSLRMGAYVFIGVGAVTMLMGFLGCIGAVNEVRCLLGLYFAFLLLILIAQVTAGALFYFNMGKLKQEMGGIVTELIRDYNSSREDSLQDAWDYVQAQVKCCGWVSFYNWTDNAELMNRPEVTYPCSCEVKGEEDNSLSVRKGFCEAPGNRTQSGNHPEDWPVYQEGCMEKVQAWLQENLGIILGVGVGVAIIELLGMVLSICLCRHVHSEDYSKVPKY


What follows are binders tested against T1, CD82 polypeptide (human) (human) (assay: IP with anti CD82 antibodies, human myotubes, mass spectrometry).

Row | Total | Unique | Binder
1 | 3 | 3 | Annexin A1 (human) (protein) AMVSEFLKQAWFIENEEQEYVQTVKSSKGGPGSAVSPYPTFNPSSDVAALHKAIMVKGVDEATIIDILTKRNNAQRQQIKAAYLQETGKPLDETLKKALTGHLEEVVLALLKTPAQFDADELRAAMKGLGTDEDTLIEILASRTNKEIRDINRVYREELKRDLAKDITSDTSGDFRNALLSLAKGDRSEDFGVNEDLADSDARALYEAGERRKGTDVNVFNTILTTRSYPQLRRVFQKYTKYSKHDMNKVLDLELKGDIEKCLTAIVKCATSKPAFFAEKLHQAMKGVGTRHKALIRIMVSRSEIDMNDIKAFYQKMYGISLCQAILDETKGDYEKILVALCGGN
2 | 3 | 3 | TGF beta receptor 1 (receptor) LQCFCHLCTKDNFTCVTDGLCFVSVTETTDKVIHNSMCIAEIDLIPRDRPFVCAPSSKTGSVTTTYCCNQDHCNKIELPTTVKSSPGLGPVELAAVIAGPVCFVCISLMLMVYICHNRTVIHHRVPNEEDPSLDRPFISEGTTLKDLIYDMTTSGSGSGLPLLVQRTIARTIVLQESIGKGRFGEVWRGKWRGEEVAVKIFSSREERSWFREAEIYQTVMLRHENILGFIAADNKDNGTWTQLWLVSDYHEHGSLFDYLNRYTVTVEGMIKLALSTASGLAHLHMEIVGTQGKPAIAHRDLKSKNILVKKNGTCCIADLGLAVRHDSATDTIDIAPNHRVGTKRYMAPEVLDDSINMKHFESFKRADIYAMGLVFWEIARRCSIGGIHEDYQLPYYDLVPSDPSVEEMRKVVCEQKLRPNIPNRWQSCEALRVMAKIMRECWYANGAARLTALRIKKTLSQLSQQEGIKM
3 | 3 | 3 | EHD2_HUMAN (protein) MFSWLKRGGARGQQPEAIRTVTSALKELYRTKLLPLEEHYRFGAFHSPALEDADFDGKPMVLVAGQYSTGKTSFIQYLLEQEVPGSRVGPEPTTDCFVAVMHGDTEGTVPGNALVVDPDKPFRKLNPFGNTFLNRFMCAQLPNQVLESISIIDTPGILSGAKQRVSRGYDFPAVLRWFAERVDLIILLFDAHKLEISDEFSEAIGALRGHEDKIRVVLNKADMVETQQLMRVYGALMWALGKVVGTPEVLRVYIGSFWSQPLLVPDNRRLFELEEQDLFRDIQGLPRHAALRKLNDLVKRARLVRVHAYIISYLKKEMPSVFGKENKKKQLILKLPVIFAKIQLEHHISPGDFPDCQKMQELLMAHDFTKFHSLKPKLLEALDEMLTHDIAKLMPLLRQEELESTEVGVQGGAFEGTHMGPFVERGPDEAMEDGEEGSDDEAEWVVTKDKSKYDEIFYNLAPADGKLSGSKAKTWMVGTKLPNSVLGRIWKLSDVDRDGMLDDEEFALASHLIEAKLEGHGLPANLPRRLVPPSKRRHKGSAE
4 | 3 | 3 | PRDX2_HUMAN (enzyme) ASGNARIGKPAPDFKATAVVDGAFKEVKLSDYKGKYVVLFFYPLDFTFVCPTEIIAFSNRAEDFRKLGCEVLGVSVDSQFTHLAWINTPRKEGGLGPLNIPLLADVTRRLSEDYGVLKTDEGIAYRGLFIIDGKGVLRQITVNDLPVGRSVDEALRLVQAFQYTDEHGEVCPAGWKPGSDTIKPNVDDSKEYFSKHN
5 | 3 | 3 | Eh domain containing 1 (protein) MFSWVSKDARRKKEPELFQTVAEGLRQLYAQKLLPLEEHYRFHEFHSPALEDADFDNKPMVLLVGQYSTGKTTFIRHLIEQDFPGMRIGPEPTTDSFIAVMHGPTEGVVPGNALVVDPRRPFRKLNAFGNAFLNRFMCAQLPNPVLDSISIIDTPGILSGEKQRISRGYDFAAVLEWFAERVDRIILLFDAHKLDISDEFSEVIKALKNHEDKIRVVLNKADQIETQQLMRVYGALMWSLGKIINTPEVVRVYIGSFWSHPLLIPDNRKLFEAEEQDLFKDIQSLPRNAALRKLNDLIKRARLAKVHAYIISSLKKEMPNVFGKESKKKELVNNLGEIYQKIEREHQISPGDFPSLRKMQELLQTQDFSKFQALKPKLLDTVDDMLANDIARLMVMVRQEESLMPSQVVKGGAFDGTMNGPFGHGYGEGAGEGIDDVEWVVGKDKPTYDEIFYTLSPVNGKITGANAKKEMVKSKLPNTVLGKIWKLADVDKDGLLDDEEFALANHLIKVKLEGHELPADLPPHLVPPSKRRHE
6 | 3 | 3 | EHD4_HUMAN (protein) MFSWMGRQAGGRERAGGADAVQTVTGGLRSLYLRKVLPLEEAYRFHEFHSPALEDADFENKPMILLVGQYSTGKTTFIRYLLEQDFPGMRIGPEPTTDSFIAVMYGETEGSTPGNALVVDPKKPFRKLSRFGNAFLNRFMCSQLPNQVLKSISVIDSPGILSGEKQRISRGYDFCQVLQWFAERVDRIILLFDAHKLDISDEFSEAIKAFRGQDDKIRVVLNKADQVDTQQLMRVYGALMWSLGKVINTPEVLRVYIGSFWAQPLQNTDNRRLFEAEAQDLFRDIQSLPQKAAVRKLNDLIKRARLAKVHAYIISYLKKEMPSVFGKENKKRELISRLPEIYIQLQREYQISAGDFPEVKAMQEQLENYDFTKFHSLKPKLIEAVDNMLSNKISPLMNLISQEETSTPTQLVQGGAFDGTTEGPFNQGYGEGAKEGADEEEWVVAKDKPVYDELFYTLSPINGKISGVNAKKEMVTSKLPNSVLGKIWKLADCDCDGMLDEEEFALAKHLIKIKLDGYELPSSLPPHLVPPSHRKSLPKAD
